Test results published in patent US20200362034A1 (KINDRED BIOSCIENCES, published 2020).

Experiments:
FeGLP1R-N-huFc_PolyHis = FeGLP1R-N-huFc_PolyHis (feline, biotinylated (sites not given) in the Octet assay); assay: biolayer interferometry (Octet); biotinylated FeGLP1R-N-huFc_PolyHis on streptavidin tips; 1:1 fit
Protocol: Briefly, FeGLP1R-N-huFc_PolyHis was biotinylated, the free unreacted biotin was removed, and the biotinylated protein was captured to streptavidin sensor tips. […] Dissociation was monitored for 600 seconds. A buffer only blank curve was subtracted to correct for any drift. […] The buffer for dilutions and all binding steps was: 20 mM phosphate, 150 mM NaCl, pH 7.2.

[1] = molecular target: human glucagon ligand peptide-1 receptor (GLP1R) (human, UniProt P43220 24-463); assay: cell-based or functional assay

Chain of FeGLP1R-N-huFc_PolyHis (feline, biotinylated (sites not given) in the Octet assay) (chain, as listed by the source): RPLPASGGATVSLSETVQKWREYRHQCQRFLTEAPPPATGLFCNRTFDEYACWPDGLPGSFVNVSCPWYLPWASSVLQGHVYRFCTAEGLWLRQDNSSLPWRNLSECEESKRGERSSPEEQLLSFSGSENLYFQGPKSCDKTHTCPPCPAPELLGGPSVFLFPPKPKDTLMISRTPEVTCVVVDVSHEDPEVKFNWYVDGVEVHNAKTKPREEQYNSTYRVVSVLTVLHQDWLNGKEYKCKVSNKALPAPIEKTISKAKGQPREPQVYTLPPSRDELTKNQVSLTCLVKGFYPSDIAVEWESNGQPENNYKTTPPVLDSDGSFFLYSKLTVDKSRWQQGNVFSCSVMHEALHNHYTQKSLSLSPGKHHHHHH

Binder	Kd (FeGLP1R-N-huFc_PolyHis)	EC 50 (nM), cAMP Hunter bioassay on CHO-K1 cells overexpressing human GLP1R [1]
GLP1-G8_I_VARfeIgG2 (Fc fusion, Formula I contiguous polypeptide made in CHO cells; The Fc chains pair through hinge disulfides; also called GLP1 MB variant; GLP1-B) HGEGTFTSDVSSYLEGQAAKEFIAWLVKGGGGSGGGGSGGGGSGGGGSPKTASTIESKTGECPKCPVPEIPGAPSVFIFPPKPKDTLSISRTPEVTCLVVDLGPDDSNVQITWFVDNTEMHTAKTRPREEQFNSTYRVVSVLPILHQDWLKGKEFKCKVNSKSLPSAMERTISKAKGQPHEPQVYVLPPTQEELSENKVSVTCLIKGFHPPDIAVEWEITGQPEPENNYQTTPPQLDSDGTYFLYSRLSVDRSHWQRGNTYTCSVSHEALHSHHTQKSLTQSPGK	8 to 16 nM	0.0281 nM
GLP1-G8/GLP1-2G_III_VARfeIgG2 (Fc fusion) HGEGTFTSDVSSYLEGQAAKEFIAWLVKGGGGSGGGGSGGGGSGGGGSPKTASTIESKTGECPKCPVPEIPGAPSVFIFPPKPKDTLSISRTPEVTCLVVDLGPDDSNVQITWFVDNTEMHTAKTRPREEQFNSTYRVVSVLPILHQDWLKGKEFKCKVNSKSLPSAMERTISKAKGQPHEPQVYVLPPTQEELSENKVSVTCLIKGFHPPDIAVEWEITGQPEPENNYQTTPPQLDSDGTYFLYSRLSVDRSHWQRGNTYTCSVSHEALHSHHTQKSLTQSPGKGGGGSGGGGHAEGTFTSDVSSYLEGQAAKEFIAWLVKGGG		0.0175 nM
